Values joined by “and” are separate entries in the source; they are usually repeats but may differ in a detail not shown here. Equal entries are not always repeated.
Columns and labels:
SEC [1] = target: the molecule itself; test: SEC
SEC [2] = target: the molecule itself; test: SEC; remark: listed apart in the source
[3] = target: T1, BAI3_eCUB^253 (C-terminal extended CUB domain of BAI3, aa. 25-253) (human, UniProt O60242 25-253); test: ITC
T1 sequence (looked up): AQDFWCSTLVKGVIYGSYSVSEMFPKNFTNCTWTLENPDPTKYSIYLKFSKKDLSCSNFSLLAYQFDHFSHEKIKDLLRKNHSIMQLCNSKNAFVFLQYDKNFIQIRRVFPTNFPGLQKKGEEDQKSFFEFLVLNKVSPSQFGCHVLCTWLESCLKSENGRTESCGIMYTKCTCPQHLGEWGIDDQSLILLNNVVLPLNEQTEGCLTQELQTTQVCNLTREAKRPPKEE

SEC-MALS = target: the molecule itself; test: SEC-MALS
[4] = target: T2, BAI3 extracellular domain (ECD) (human, UniProt O60242 25-880); test: ITC
T2 sequence (looked up): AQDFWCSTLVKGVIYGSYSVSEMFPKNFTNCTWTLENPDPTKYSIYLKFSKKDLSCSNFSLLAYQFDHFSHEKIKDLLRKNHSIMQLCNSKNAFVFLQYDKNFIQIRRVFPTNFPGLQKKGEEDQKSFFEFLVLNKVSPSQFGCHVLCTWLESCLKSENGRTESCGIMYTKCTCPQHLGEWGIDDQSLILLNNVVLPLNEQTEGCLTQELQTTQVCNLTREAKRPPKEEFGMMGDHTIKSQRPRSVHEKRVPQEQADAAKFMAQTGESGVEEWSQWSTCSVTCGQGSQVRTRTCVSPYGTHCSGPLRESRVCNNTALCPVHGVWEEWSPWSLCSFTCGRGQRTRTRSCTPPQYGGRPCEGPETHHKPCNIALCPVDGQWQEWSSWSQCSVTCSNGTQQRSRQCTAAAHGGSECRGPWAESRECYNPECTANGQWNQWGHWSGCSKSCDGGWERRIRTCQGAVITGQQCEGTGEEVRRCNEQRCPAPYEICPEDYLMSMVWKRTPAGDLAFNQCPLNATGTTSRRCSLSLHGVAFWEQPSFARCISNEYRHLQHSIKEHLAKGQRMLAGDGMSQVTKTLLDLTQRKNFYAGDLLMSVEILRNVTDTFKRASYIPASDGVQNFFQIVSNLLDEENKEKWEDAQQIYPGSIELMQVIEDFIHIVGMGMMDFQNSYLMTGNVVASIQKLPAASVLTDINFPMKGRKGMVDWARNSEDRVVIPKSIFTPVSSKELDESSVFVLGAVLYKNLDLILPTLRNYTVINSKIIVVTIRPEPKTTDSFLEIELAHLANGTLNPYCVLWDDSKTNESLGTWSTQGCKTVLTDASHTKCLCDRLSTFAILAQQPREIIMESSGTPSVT

B1: full-length C1ql1, bacteria-expressed (without signal peptide) (natural protein, mouse, UniProt O88992 17-258, looked up)
chain: GPDGHYEMLGTCRMVCDPYPARGPGAGARSDGGDALSEQSGAPPPSTLVQGPQGKPGRTGKPGPPGPPGDRGPPGPVGPPGEKGEPGKPGPPGLPGSGGSGAISTATYTTVPRVAFYAGLKNPHEGYEVLKFDDVVTNLGNNYDAASGKFTCNIPGTYFFTYHVLMRGGDGTSMWADLCKNGQVRASAIAQDADQNYDYASNSVILHLDAGDEVFIKLDGGKAHGGNSNKYSTFSGFIIYSD
In the case of B1, the “stoichiometry N” value (SEC [1]) is reported as 6 and 3.

B2: C1ql1_gC1q D208N (domain or fragment, mouse)
chain: TTVPRVAFYAGLKNPHEGYEVLKFDDVVTNLGNNYDAASGKFTCNIPGTYFFTYHVLMRGGDGTSMWADLCKNGQVRASAIAQNADQNYDYASNSVILHLDAGDEVFIKLDGGKAHGGNSNKYSTFSGFIIYSD
In the case of B2, the binding result (SEC [2]) is reported as “binds” and the “fold weaker binding than wild type” value [3] is reported as ~9 fold.

B3: C1ql1_gC1q D214N (domain or fragment, mouse)
chain: TTVPRVAFYAGLKNPHEGYEVLKFDDVVTNLGNNYDAASGKFTCNIPGTYFFTYHVLMRGGDGTSMWADLCKNGQVRASAIAQDADQNYNYASNSVILHLDAGDEVFIKLDGGKAHGGNSNKYSTFSGFIIYSD
B3: binds [3].

B4: C1ql1_gC1q D210N (domain or fragment, mouse)
chain: TTVPRVAFYAGLKNPHEGYEVLKFDDVVTNLGNNYDAASGKFTCNIPGTYFFTYHVLMRGGDGTSMWADLCKNGQVRASAIAQDANQNYDYASNSVILHLDAGDEVFIKLDGGKAHGGNSNKYSTFSGFIIYSD
B4: binds [3].

B5: C1ql1_gC1q A209S (domain or fragment, mouse)
chain: TTVPRVAFYAGLKNPHEGYEVLKFDDVVTNLGNNYDAASGKFTCNIPGTYFFTYHVLMRGGDGTSMWADLCKNGQVRASAIAQDSDQNYDYASNSVILHLDAGDEVFIKLDGGKAHGGNSNKYSTFSGFIIYSD
B5: binds [3].

B6: C1ql1_gC1q (globular C1q domain of mouse C1ql1), wild type (domain or fragment)
chain: ATYTTVPRVAFYAGLKNPHEGYEVLKFDDVVTNLGNNYDAASGKFTCNIPGTYFFTYHVLMRGGDGTSMWADLCKNGQVRASAIAQDADQNYDYASNSVILHLDAGDEVFIKLDGGKAHGGNSNKYSTFSGFIIYSD
With B6 the “stoichiometry N” value (SEC-MALS) was 6 and 3, the Kd [4] was ~1100 nM and the Kd [3] was ~150 nM. The “stoichiometry N” value [3] was 3 eCUB molecules per gC1q trimer.

Source: PMC12749725 (Nature Communications, 2025)
